Source: patent US20160137746A1, “METHODS FOR TREATING HIGH CARDIOVASCULAR RISK PATIENTS WITH HYPERCHOLESTEROLEMIA” (Sanofi Biotechnology, priority 2014, published 2016)

System: high cardiovascular risk patients with hypercholesterolemia
Assay: ODYSSEY LONG TERM: long-term safety and tolerability
[1] = Final analysis, Safety Analysis
[2] = Final analysis, Safety Analysis (N = 1550)
[3] = Safety population, 223 patients, pre-specified analysis
[4] = Safety population, 562 patients, pre-specified analysis
[5] = Safety population, treatment period, pre-specified analysis, 150 Q2W
[6] = TEAE period, pre-specified analysis
[7] = alirocumab patients with two consecutive LDL-C <25 mg/dL (n = 562), pre-specified analysis

Protocol: Safety parameters (adverse events [including adjudicated cardiovascular events], laboratory data, vital signs, and ECG) were assessed throughout the study.
Safety endpoints assessed in this trial were: cardiovascular events; allergic events; local tolerability at injection site; other adverse events (including hemolytic anemia); laboratory tests: urinalysis, hematology (red blood cell count, red blood cell distribution width (RDW), reticulocyte count, hemoglobin, hematocrit, platelets, white blood cell count with differential blood count), standard chemistry (sodium, potassium, chloride, bicarbonate, calcium, phosphorous, urea nitrogen, creatinine, uric acid, total protein, albumin, LDH, γ Glutamyl Transferase [γGT]), Vitamin E (alpha tocopherol) and other Fat Soluble Vitamins, cortisol (and reflexive ACTH levels, as needed, followed by ACTH stimulation test, as needed), Gonadal Hormone Assessments, Hepatitis C antibody, liver panel (ALT, AST, ALP, and total bilirubin), and CPK; vital signs including heart rate and blood pressure; and 12-lead ECG.
The safety population included all randomized patients who received at least one dose or part of a dose of the double-blind IMP.
Safety analyses were descriptive, performed on the safety population according to treatment actually received. The safety analysis focused on the TEAE period defined as the time from the first dose of double-blind injection up to 70 days after the last double-blind injection. TEAE which developed, worsened or became serious or PCSA occurring after the patient's first injection in the open-label extension study (LTS13643) were not considered in the TEAE period. TEAE period was truncated at the common study cut-off date.

## Alirocumab: human anti-PCSK9 antibody; HCVR SEQ ID NO:1, LCVR SEQ ID NO:6; CDRs SEQ ID NOs 2/3/4/7/8/10
[1]
  Alanine aminotransferase >3 times ULN, %: (1.8) %
  Alanine aminotransferase >3 times ULN, n/N: 28/1533
  Aspartate aminotransferase >3 times ULN, %: (1.4) %
  Aspartate aminotransferase >3 times ULN, n/N: 22/1533
  Creatine kinase >3 times ULN, %: (3.7) %
  Creatine kinase >3 times ULN, n/N: 56/1507
  Diabetes in patients with no history of diabetes, %: (1.8) %
  Diabetes in patients with no history of diabetes, n/N: 18/994
  Worsening of diabetes in patients with history of diabetes, %: (12.9) %
  Worsening of diabetes in patients with history of diabetes, n/N: 72/556
[2]
  Amnesia, % of patients: (0.3) %
  Amnesia, No. of patients: 5
  CHD death including unknown cause, % of patients: (0.3) %
  CHD death including unknown cause, No. of patients: 4
  Confusional state, % of patients: (0.3) %
  Confusional state, No. of patients: 4
  Congestive heart failure requiring hospitalization, % of patients: (0.6) %
  Congestive heart failure requiring hospitalization, No. of patients: 9
  Fatal and non-fatal ischemic stroke, % of patients: (0.6) %
  Fatal and non-fatal ischemic stroke, No. of patients: 9
  General allergic reaction events, % of patients: (10.1) %
  General allergic reaction events, No. of patients: 156
  Hemolytic anemia, No. of patients: 0
  Ischemia-driven coronary revascularization procedure, % of patients: (3.1) %
  Ischemia-driven coronary revascularization procedure, No. of patients: 48
  Local injection site reaction, % of patients: (5.9) %
  Local injection site reaction, No. of patients: 91
  Memory impairment, % of patients: (0.3) %
  Memory impairment, No. of patients: 4
  Myalgia, % of patients: (5.4) %
  Myalgia, No. of patients: 84
  Neurocognitive disorders, % of patients: (1.2) %
  Neurocognitive disorders, No. of patients: 18
  Neurological events, % of patients: (4.2) %
  Neurological events, No. of patients: 65
  Non-fatal MI, % of patients: (0.9) %
  Non-fatal MI, No. of patients: 14
  Ophthalmological events, % of patients: (2.9) %
  Ophthalmological events, No. of patients: 35
  Positively adjudicated cardiovascular events (including all cardiovascular AEs listed above), % of patients: (4.6) %
  Positively adjudicated cardiovascular events (including all cardiovascular AEs listed above), No. of patients: 72
  Post hoc analysis of a subgroup of adjudicated MACE, % of patients: (1.7) %
  Post hoc analysis of a subgroup of adjudicated MACE, No. of patients: 27
  TEAEs leading to death, % of patients: (0.5) %
  TEAEs leading to death, No. of patients: 8
  TEAEs leading to discontinuation, % of patients: (7.2) %
  TEAEs leading to discontinuation, No. of patients: 111
  TEAEs, % of patients: (81.0) %
  TEAEs, No. of patients: 1255
  Treatment-emergent SAEs, % of patients: (18.7) %
  Treatment-emergent SAEs, No. of patients: 290
[3]
  Time to the first calculated LDL-C value <15 mg/dL, mean (SD): 12.99 (12.43) weeks
  Time to the first calculated LDL-C value <15 mg/dL, median: 8.14 weeks
[4]
  Time to the first calculated LDL-C value <25 mg/dL, mean (SD): 11.03 (11.51) weeks
  Time to the first calculated LDL-C value <25 mg/dL, median: 4.86 weeks
[5]
  Patients with 2 consecutive calculated LDL-C value <15 mg/dL, %: (14.8%)
  Patients with 2 consecutive calculated LDL-C value <15 mg/dL, n/N: 223/1503
  Patients with 2 consecutive calculated LDL-C value <25 mg/dL, %: (37.4%)
  Patients with 2 consecutive calculated LDL-C value <25 mg/dL, n/N: 562/1503
[6]
  Cardiovascular death per adjudication: 5 (0.3%) n (%)
  Patients with decreased plasma vitamin E levels below the outer limit of normal (31 out of 1461): 2.1%
  SAEs: 255 (16.5%) n (%)
[7]
  AE of special interest: All adjudicated cardiovascular events, % of patients: 4.3%
  AE of special interest: General allergic reaction events, % of patients: 8.0%
  AE of special interest: Haemolytic anaemia, % (n) of patients: 0
  AE of special interest: Neurocognitive disorders, % of patients: 0.7%
  AE of special interest: Neurological events, % of patients: 3.2%
  AE of special interest: Ophthalmological events, % of patients: 2.5%
  AE of special interest: Treament-emergent local injection site reactions, % of patients: 6.2%
  Neurocognitive AE: Amnesia, % (n) of patients: 0
  Neurocognitive AE: Any neurocognitive disorder, % of patients: 0.7%
  Neurocognitive AE: Confusion postoperative, % (n) of patients: 0
  Neurocognitive AE: Confusional state, % of patients: 0.2% (1)
  Neurocognitive AE: Dementia, % of patients: 0.2% (1)
  Neurocognitive AE: Disorientation, % (n) of patients: 0
  Neurocognitive AE: Disturbance in attention, % (n) of patients: 0
  Neurocognitive AE: Frontotemporal dementia, % of patients: 0.2% (1)
  Neurocognitive AE: Memory impairment, % (n) of patients: 0
  Neurocognitive AE: Transient global amnesia, % (n) of patients: 0
  TEAE ALT increase, % of patients: 0.7%
  TEAE AST increase, % of patients: 0%
  TEAE Angina pectoris, % of patients: 1.8% (10)
  TEAE Arthralgia, % of patients: 3.2% (18)
  TEAE Atrial fibrillation, % of patients: 1.6% (9)
  TEAE Back pain, % of patients: 5.0% (28)
  TEAE Bronchitis, % of patients: 5.2% (29)
  TEAE CPK increase, % of patients: 0.2%
  TEAE Cellulitis, % of patients: 1.6% (9)
  TEAE Confusion, % of patients: 1.2% (7)
  TEAE Constipation, % of patients: 1.6% (9)
  TEAE Cough, % of patients: 2.0% (11)
  TEAE Depression, % of patients: 1.4% (8)
  TEAE Diarrhea, % of patients: 3.9% (22)
  TEAE Dizziness, % of patients: 1.4% (8)
  TEAE Fall, % of patients: 1.6% (9)
  TEAE Fatigue, % of patients: 3.0% (17)
  TEAE Gastoenteritis, % of patients: 0.7% (4)
  TEAE Headache, % of patients: 1.8% (10)
  TEAE Hypertension, % of patients: 2.0% (11)
  TEAE Influenza, % of patients: 4.1% (23)
  TEAE Injection site reaction, % of patients: 3.6% (20)
  TEAE Lower respiratory tract infection (LRTI), % of patients: 2.8% (16)
  TEAE Muscle spasms, % of patients: 2.8% (16)
  TEAE Musculoskeletal pain, % of patients: 1.4% (8)
  TEAE Myalgia, % of patients: 3.0% (17)
  TEAE Nasopharyngitis, % of patients: 10.0% (56)
  TEAE Nausea, % of patients: 0.9% (5)
  TEAE Non-cardiac chest pain, % of patients: 2.0% (11)
  TEAE Osteoarthritis, % of patients: 2.1% (12)
  TEAE Pain in extremity, % of patients: 2.1% (12)
  TEAE Rhinitis, % of patients: 1.2% (7)
  TEAE Sinusitis, % of patients: 3.0% (17)
  TEAE Type-2 diabetes mellitus, % of patients: 2.5% (14)
  TEAE leading to death, % of patients: 0.5% (3)
  TEAEs by System-Organ-Class: Blood and lymphatic system disorders, % of patients: 1.6% (9)
  TEAEs by System-Organ-Class: Cardiac disorders, % of patients: 7.5% (42)
  TEAEs by System-Organ-Class: Ear and labyrinth disorders, % of patients: 1.2% (7)
  TEAEs by System-Organ-Class: Eye disorders, % of patients: 6.4% (36)
  TEAEs by System-Organ-Class: Gastrointestinal disorders, % of patients: 13.7% (77)
  TEAEs by System-Organ-Class: General disorders and administration site conditions, % of patients: 11.0% (62)
  TEAEs by System-Organ-Class: Injury, poisoning, and procedural complications, % of patients: 10.5% (59)
